Experimental findings from PMC5352318, “Carcinoma-risk variant of EBNA1 deregulates Epstein-Barr Virus episomal latency” are described below.

In data set [1] the target is T1, B95-8 EBNA1 DBD (Epstein-Barr virus (strain B95-8)) (UniProt P03211).
T1 sequence: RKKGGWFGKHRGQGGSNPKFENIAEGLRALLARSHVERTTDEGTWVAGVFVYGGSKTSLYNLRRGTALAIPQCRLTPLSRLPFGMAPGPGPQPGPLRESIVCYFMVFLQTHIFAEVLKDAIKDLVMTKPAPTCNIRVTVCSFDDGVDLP
The data set can be described thus: SPR. Conditions: SPR (Biacore T200, SA chip): 20 mM Tris pH 8.0, 250 mM NaCl, 5 mM beta-mercaptoethanol, 1 mM MgCl2, EBNA1 0-200 nM; temperature not stated. Crystals: 0.2 M …. (In general: Surface plasmon resonance follows binding to a sensor surface in real time, without labels.)

Another data set has as its target B95-8 EBNA1 DBD (Epstein-Barr virus (strain B95-8), UniProt P03211 459-607). The data set can be described thus: SPR; 1 mM Mg2+; range given for both proteins, exact value in Fig 2B; SPR (Biacore T200, SA chip): 20 mM Tris pH 8.0, 250 mM NaCl, 5 mM beta-mercaptoethanol, 1 mM MgCl2, EBNA1 0-200 nM; temperature not stated. Crystals: 0.2 M ammonium acetate, 0.15 M Mg acetate, 0.05 M Hepes pH 7.0, 5% PEG 4000. Conditions: protein: recombinant; tags: His6-SUMO tag, cleaved; chain copies: 2; label: 5' biotin; self-complementary 18-mer.

For orientation: Kd means the free concentration of one partner at which half of the binding sites on the other are occupied at equilibrium, for simple one-to-one binding. In turn, “CGATAGCATATGCTTCCCGTTGGGTAACATATGCTATTG (double strand) [DS 3+4 (two EBNA1 dimer sites)]” came in with a Kd in data set [1] of 11.9 nM.

B1: FR single EBNA1 dimer site (SPR) (dsDNA)
DNA 1: GGGAAGCATATGCTTCCC
DNA 2: GGGAAGCATATGCTTCCC
Regarding B1, the Kd in the data set with B95-8 EBNA1 DBD was around 16.5 nM.
